The results in this text go back to the supplement of paper PMC9112550, “Optimization of the antimicrobial peptide Bac7 by deep mutational scanning” (BMC Biology, 2022).
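Note: peptides expressed intracellularly from a pBAD plasmid library in pooled LB shake-flask culture, induced with 0.3% L-arabinose, DNA abundance read by NGS, three biological replicates, DESeq2 with apeglm shrinkage.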

For the series, the system named is Escherichia coli TOP10. Kind of series: shrunken log2 fold change of peptide-encoding DNA abundance (4.5 h post-induction vs induction); higher = less antimicrobial activity (less host growth inhibition). To be noted: time post-induction: 4.5 h; library: site-saturation at positions 5, 18, 19, 20.
For RRIRIRPPRLPRPRPRPNQIPRP, the “shrunken log2 fold change” value was -0.713. The figure for RRIRLRPPRLPRPRPRPTLCPRP is 0.163. The figure for RRIRIRPPRLPRPRPRPDSYPRP is 0.072. Next, RRIRLRPPRLPRPRPRPREWPRP: -0.0315. RRIRPRPPRLPRPRPRPMFWPRP: the “shrunken log2 fold change” value was -0.0858. Consider RRIRFRPPRLPRPRPRPAVRPRP, for which the “shrunken log2 fold change” value was -0.0627. On to RRIRTRPPRLPRPRPRPINCPRP, for which the “shrunken log2 fold change” value was 0.00543. Next, RRIRTRPPRLPRPRPRPLGPPRP: 0.114; RRIRERPPRLPRPRPRPCTCPRP: -0.00884; RRIRQRPPRLPRPRPRPNLRPRP: 0.0769. Next, RRIRDRPPRLPRPRPRPDRPPRP: -0.251; RRIRPRPPRLPRPRPRPMKMPRP: -0.148; RRIRGRPPRLPRPRPRPPLSPRP: 0.897.

With RRIRERPPRLPRPRPRPEHKPRP, the “shrunken log2 fold change” value was -0.0265. The figure for RRIRHRPPRLPRPRPRPYSIPRP is -9.97e-05; for RRIRERPPRLPRPRPRPFQVPRP it is -0.212; for RRIRGRPPRLPRPRPRPGFRPRP it is 0.399. The figure for RRIRYRPPRLPRPRPRPDPEPRP is -0.345; for RRIRIRPPRLPRPRPRPHTAPRP it is 0.055; for RRIRARPPRLPRPRPRPIGPPRP it is 0.537. The figure for RRIRYRPPRLPRPRPRPAYEPRP is -0.184; for RRIRHRPPRLPRPRPRPEMRPRP it is 0.122; for RRIRYRPPRLPRPRPRPADKPRP it is -0.419.

Take RRIRKRPPRLPRPRPRPGFHPRP: the “shrunken log2 fold change” value worked out at 0.206. Next, RRIRFRPPRLPRPRPRPWSQPRP: -0.0158; RRIRPRPPRLPRPRPRPKFFPRP: 0.0479. Regarding RRIRWRPPRLPRPRPRPLDHPRP, the “shrunken log2 fold change” value is 0.165. Consider RRIRERPPRLPRPRPRPNHRPRP, for which the “shrunken log2 fold change” value was -0.101. Next, RRIRWRPPRLPRPRPRPLFIPRP: -0.353; RRIRYRPPRLPRPRPRPQTWPRP: -0.573. On to RRIRMRPPRLPRPRPRPRRIPRP, for which the “shrunken log2 fold change” value was found to be 0.767. The figure for RRIRRRPPRLPRPRPRPPNGPRP is 0.407; for RRIRQRPPRLPRPRPRPWHCPRP it is -0.0682; for RRIRVRPPRLPRPRPRPRYEPRP it is -0.273. Next, RRIRVRPPRLPRPRPRPALFPRP: 0.175. The figure for RRIRRRPPRLPRPRPRPKMPPRP is 0.191; for RRIRWRPPRLPRPRPRPDPDPRP it is 0.545. For the sequence RRIRKRPPRLPRPRPRPGKWPRP, the “shrunken log2 fold change” value was 0.184. Next, RRIRARPPRLPRPRPRPARIPRP: 0.169; RRIRPRPPRLPRPRPRPEAHPRP: 0.0215; RRIRPRPPRLPRPRPRPVQNPRP: -0.234. The figure for RRIRWRPPRLPRPRPRPPGSPRP is 0.333; for RRIRTRPPRLPRPRPRPTCPPRP it is -0.0738. Next, RRIRCRPPRLPRPRPRPVLCPRP: -0.112. As for RRIRFRPPRLPRPRPRPRIRPRP, the “shrunken log2 fold change” value is -0.075.

Consider RRIRKRPPRLPRPRPRPSFVPRP, for which the “shrunken log2 fold change” value was -0.174.

As for RRIRHRPPRLPRPRPRPYDIPRP, the “shrunken log2 fold change” value is -0.387. As to RRIRVRPPRLPRPRPRPGCKPRP, the “shrunken log2 fold change” value was determined as 0.32.

Take RRIRARPPRLPRPRPRPVTWPRP: the “shrunken log2 fold change” value stood at 0.291. Next, RRIRERPPRLPRPRPRPCFFPRP: -0.331. Next, RRIRFRPPRLPRPRPRPPFAPRP: 0.423; RRIRFRPPRLPRPRPRPPSAPRP: 0.703; RRIRGRPPRLPRPRPRPLEGPRP: 0.0436. The figure for RRIRIRPPRLPRPRPRPATNPRP is -0.339. Take RRIRKRPPRLPRPRPRPNQFPRP: the “shrunken log2 fold change” value is 0.103. For RRIRQRPPRLPRPRPRPMNLPRP, the “shrunken log2 fold change” value is -0.169.

As to RRIRRRPPRLPRPRPRPVLWPRP, the “shrunken log2 fold change” value came out at 0.886.

For RRIRWRPPRLPRPRPRPMTAPRP, the “shrunken log2 fold change” value was determined as 0.473.

With RRIRTRPPRLPRPRPRPVIHPRP, the “shrunken log2 fold change” value worked out at 0.0146. Regarding RRIRTRPPRLPRPRPRPEIAPRP, the “shrunken log2 fold change” value was -0.11. Next, RRIRDRPPRLPRPRPRPGGKPRP: -0.0179; RRIRTRPPRLPRPRPRPNSKPRP: -0.848.

RRIRRRPPRLPRPRPRPFPGPRP: the “shrunken log2 fold change” value is -0.143.

For RRIRMRPPRLPRPRPRPQAQPRP, the “shrunken log2 fold change” value worked out at 0.299. Next, RRIRWRPPRLPRPRPRPHLNPRP: 0.0153; RRIRARPPRLPRPRPRPIMYPRP: -0.161. The figure for RRIRWRPPRLPRPRPRPQQNPRP is -0.00819.

Turning to RRIRLRPPRLPRPRPRPGSPPRP, the “shrunken log2 fold change” value is 0.475. For RRIRRRPPRLPRPRPRPNACPRP, the “shrunken log2 fold change” value was -0.00291. Next, RRIRMRPPRLPRPRPRPYTQPRP: -0.149.

RRIRFRPPRLPRPRPRPCRYPRP: the “shrunken log2 fold change” value is -0.0124. Regarding RRIRMRPPRLPRPRPRPRLLPRP, the “shrunken log2 fold change” value was found to be 0.421.

For the sequence RRIRCRPPRLPRPRPRPCLTPRP, the “shrunken log2 fold change” value was -0.17. Consider RRIRRRPPRLPRPRPRPGYDPRP, for which the “shrunken log2 fold change” value was found to be 0.0506. Next, RRIRARPPRLPRPRPRPQVDPRP: 0.04; RRIRDRPPRLPRPRPRPVMEPRP: 0.532; RRIRSRPPRLPRPRPRPCSCPRP: 0.000754.

Regarding RRIRIRPPRLPRPRPRPTLIPRP, the “shrunken log2 fold change” value is -0.101. Next, RRIRARPPRLPRPRPRPMIEPRP: 0.314. Next, RRIRMRPPRLPRPRPRPVVWPRP: 1.57. The figure for RRIRCRPPRLPRPRPRPSMQPRP is -0.328; for RRIRLRPPRLPRPRPRPPNYPRP it is -0.23; for RRIRWRPPRLPRPRPRPHGTPRP it is -0.137.

With RRIRARPPRLPRPRPRPTQRPRP, the “shrunken log2 fold change” value was 0.915.

RRIRARPPRLPRPRPRPDHMPRP: the “shrunken log2 fold change” value was -0.328. The figure for RRIRERPPRLPRPRPRPSQRPRP is -0.0321; for RRIRERPPRLPRPRPRPDDRPRP it is -0.135.

In the case of RRIRIRPPRLPRPRPRPADHPRP, the “shrunken log2 fold change” value is -0.0431. Take RRIRARPPRLPRPRPRPSWQPRP: the “shrunken log2 fold change” value was 0.223. The figure for RRIRPRPPRLPRPRPRPMQAPRP is -0.0135; for RRIRNRPPRLPRPRPRPMPNPRP it is -0.0406.
